For assay [1], the target named is epidermal growth factor receptor, endogenous in A431 cell lysate (human (endogenous in A431)) (UniProt P00533). The experiment in a line: ELISA. (In general: ELISA stands for enzyme-linked immunosorbent assay.)
Assay [2] addresses epidermal growth factor receptor, endogenous in A431 cell lysate (human (endogenous in A431), UniProt P00533 25-1210). Kind of assay: ELISA.

Broadly, the Kd is the constant that tells how readily two partners part at equilibrium.

For the molecule “amphiregulin, recombinant (from UniProt P15514 20-187) (ligand)”, in assay [1], the Kd worked out at 217 nM.

B1: bovine RNase A (enzyme, UniProt P61823 27-150, looked up)
chain: KETAAAKFERQHMDSSTSAASSSNYCNQMMKSRNLTKDRCKPVNTFVHESLADVQAVCSQKNVACKNGQTNCYQSYSTMSITDCRETGSSKYPNCAYKTTQANKHIIVACEGNPYVPVHFDASV
B1 gave a Kd in assay [2] of 885 nM.

(Values after PMC5893359 (Cancer cell, 2018).)
